Test results: a protein production outcome set (Wang et al. 2014)

Experiment: label from the status in PepcDB records

| Sequence | protein production |
| --- | --- |
| MSPSCPMCTKWLDEPEFRIAELEHTRVMLNRDQFFPGYTFVFTREHVTELFHLSPPVRQGVMEEVTAVAAALYDLFQPAKMNYELLGNMVPHMHWHLVPRFATDPLWPRPIWSEPHAETLLAPEEYAGRIALIRDRLGL | failed |
| MSHKCFKDESFETRISCPLCQKELIMTWQRDNIPYFGEIMYVSAKCPCSFRFADTMILSSKEPMRYELSVESPEDLDARVIRSTSGTIRIPEMGIVVEPGTVSDSYITNIEGVLQRVQNVLMTASRWVREDEEKFARSQELLCMLNEVIEGRRAITVIIEDPLGNSAIISKKAVASKLSKEEAEKLNTGMIVFDVDKSELAHDISDNVKPLGGDLEHHHHHH | not failed |
| MLRYSLLVLLGACSYGILAIFVKLAYAEGFSLGEVIGSQYLFGWIILLAITLLFSRHRVPLKQALLLFVAGTSASFTGIFYYASLKTVPASIAIILLFQFVWVGIIIEAVATKTLPSREKVISVIFLLVGTFLSSGLLEQSAGAFDTTGIILGLLSAVTFATYIFVSGKVAVEVPSLPRGVLLMTGALTLVMIVFPPTFIFNGAISQGLWKYGLGLGTFSIVIPSIAFTIGIPKIGSGLATILGAAELPVTTIMSVFVLKEAVLSSQWFGVSLILIGIAIPQIAYAMRGRYRKHHTHKKVAA | failed |
| MNNLFVYCEIEEGIVADVSLELLTKGRSLANELNCQLEAVVAGTGLKEIEKQILPYGVDKLHVFDAEGLYPYTSLPHTSILVNLFKEEQPQICLMGATVIGRDLGPRVSSALTSGLTADCTSLEIGDHEDKKEGKVYKNLLYQIRPAFGGNIVATIVNPEHRPQMATVREGVMKKEIVSPAYQGEVIRHDVKKYVADTDYVVKVIERH | not failed |
| MAGASVAATTLKGDTSLLAGGAIRGAINAFGKDKKLKTQLASSGKLYGKYAKAASKIENLVLGGENISLVVDPP | failed |
| MSADHDEGLRRAQRLHLSGDADGAERAYRALLDDAALGAPAAHWLGFLLMQQGRLDEALAWLERVVAADDGHAEWHFNLGLVRARLGRSEEAVFALREAARRDPSRYFYWTNLGAQLMRGGQDAEAEQALRRAASLDPHCPDAFYLLTEMLLRQGRHAEARRCNAQGVLAEPPGKMAPIAVGQALCELGRSEEARSLAQSWLLAQPGHPVARHMLAAFGGGDAPADGDDEYVGCAFDAAAASFDQDLSRLRYQGPSWTAACLAGLSLAPKSLSALDLGCGTGLIGEVLQPWASRLDGVDLSAGMLARAGAKGIYDSLEQAELRAFLRQTDRTYQLIACMDTLPYLGELDALFMLLAERMAPGGLLLFCTESLEDGEAGDGRLHHSGRYRHHSRYLDRLLAVGWDVLERARMPVRDEAGCPVWGDFVCARKVFAA | failed |
| MVGKSKSPEFNFEDGMAYFDAVKVALQDTEPEKYQEFVRIFIDYTANRFGFETLSASLQELLRDHANLCHGSNVLLPFRLQTAIPPEASAEFHINKVVGRSVPPAVAVPTMDDATSYLNAVKEAFHDEPAKYMEITKLLTDLKARRINAASVIARMEELLKDHLNLLLGFCVFLSPTRRFITKLKARFLGDGSQVVDSVLQILRMHSEGNKSKDEASQEVRALIQGHEDLLMELSEIFSDP | failed |
| MDQMEKITTGVSYTTSAVGTGYWFLQLLDRVSPSQWAAIGVLGSLLFGLLTYLTEVYWQ | failed |
| MGSRDLISSLPDEILGKVLSLLPTKRAASTAVLSKRWNNLPALVDKLDINDAIGGPGGFPEFIDKTLALLTNSTTIKRTSLNNEFQYGESQVNTWIRSFLERGCLQLYLNAQSLYTIDTEFFTSNTLVELTITGGFSPDGLLPPGGVFFPKLKTLSLVLMTFVDSDMYELFISGCPLLEEFLLRNDEIEIPPVWNALVSSPSIKRLTIVHHFPNYREAHDGCWFRTPNLVYLDYSSYVPDWYEVDLGSLVEARLDLRSWERLRDEKAGGYGDCDSVYDDEEYPDDPILGDVTNLVTGLSNIKTLHLSPDSLEVFYFCCKSMPVFHNLLTLSFESAKKEAGQCCHFSSISLLT | failed |
| MSTSDSCYNTGYILRICAIAALGGILFGYDTAVISGAIGSLTSYFHLSPAETGWAVSCVVVGCVIGSFSAGYLSKRFGRKKSLMVSALLFTISAVGTSLSYTFTHFVIYRIIGGLAVGLAATVSPMYMSEVSPKNMRGRALSMQQFAIVFGQILIFYVNYKIASIAADTWLIELGWRYMFAAGIIPCILFCILVFLIPESPRWMMMIGREEETLKILTKISNEEHARHLLADIKTSLQNDQLNAHQKLNYRDGNVRFILILGCMIAMLQQVTGVNVMMYYAPIVLKDVTGSAQEALFQTIWIGVIQLIGSIIGAMIMDKMGRLSLMRKGTIGSIIGLLLTSWALYSQATGYFALFGMLFFMIFYALSWGVGAWVLISEIFPNRMRSQGMSISVGFMWMANFLVSQFFPMINENPYLLSHFHGAFPMWIFAICCIFSYFFICRYLPETKGISLEKMESVVLAKRRKKLQPIQTERYSD | failed |
| MADNTLHSSARANWLERRFALRSRGGTLRTECLAGITGFLAAAYLLVVIPGLLAIGGMDKGAATTGTILVFVVGSLLMAFYANLPFIVGPGIGGSVLVGVTLAGSEGIGWQTGLGIACWSGILFFLLTRFGLREVVTRSVPQSIKLGLTASIGLFVAVLGFRNAGLVLANAKTNALMLGDFLAPGALVALCGLFLAIALQARKVPGAILWAILCATLVGIPFGVTKLPTHFIDAPHSLAPVLGQVDLLGALNIAFLPFLFVFFASEFFSTMGTTLAVGGEAGLLDEEGNMPQINRPFMVDSIAAALGPWLGIPAATALIESSAAAEAGGKTGLTALSAAVMFLLMLLFTPVALMIPKEATAPALILIGLNMFSGLRKVDLANFTDGLPVLMMVMITLIANSFGTGIAGGLLFYIVIKAIAGKWREIPIGLWVLAVPLVYYFATLVRH | failed |
| MKKSKYLTLLSVAALTLLTSGLGSQAVLADTDTAQTTNTSTNTTTDTSKTSTALNHQEAKGQKLTTPVGTLPNAQDAISNKAVLKRVHGYSWKTTPDVSAAGSQKATVVITYTDGTTSEVEVDLEVTGTGCASQNSPVAKTGLTVKVGKSLTARSAISNLSRLRNVDSVTWKQAPSTAKAGTVKGTVLVTYTDKSTDTVDVTVKVSSVVTTKKSVKKSKKKQYVTKTRKIILDRPGKNKTITQKVKLSRTVTTTTTTTKTYTDGKLTKTSKKAKKSYGKWSKGTWKSYKVPAISGYKRSTTKVKAKAVTSKTKNITVKVSYKRVLHKPANAPYYDPADMRAKTGAYYFQSSEKRAYPNLAKYKNVWIRVSILGNRVYVMSGKKVIYTMYSSAGRFEMTNGKYQSDTPRGTFYLKAAYGPSFMSSDGVGARYYMAYYGSDYLFHSVPINNYGSGVYYKGYHYGYGGVGSTAHLTVQGTNPDSLGCIRLTLSDARWLYGQRTSGKLKVGTKVVIKYK | failed |
| RTRHLFEMTRELSRALTLEEVVRTSYHFLSSAFDAKVCLLMPNHHGELTPYNAEGMGQLPIDSGIARWCWDKDQIAGAGTDTLPSVPYQLHPISASQQVLAILAIEPNNLRQVLIPEQQQLLQTFNGLIANALERLQQAEMAEQSRINIEREQ | not failed |
| MTIVWRDCFCVRSHSSNGLFMDVENNTAFWITGYQEARLGPVPEPTFPASETPYVIVRSRYSGISRGTESLVYNNQVPENEYQRMRAPFQEGEFPFPVKYGYASVGEVVDGPEALLGRNVFCLYPHQQRYAVPASAVLPLPAKVPAERAVLAANMETAVNGVWDGQPAVGDRIAVIGLGVVGLLVAWLVNRIPGVELIGVDTNEGRRSVAQALGVRFTTEPDIQNCDLVFHASGHPSGLAKALSLAGTDARVIELSWYGDTPVSVPLGHAFHPNRLTLKSSQVGQLSPERRPRWHHRRRLELALSMLSEPALDALISGESRFEQLPQVAGNILMPGADALCHRIVY | failed |
| MVLTKKYDKLGHILLNVFIVFCTFEVFIKGVLTLQQESSSGVNAIKIGILLFMIFAIVLKGKIKGMTTKIKGIMFIYLVFFIVLGLKILSINQMSDITGWLSDNNNLNYIFSFVCFIIILNIDIKRESVINTLIVSSTVVMVISFIFFIKNNYYGLAAPDIIQAYSMGFLNKTRMLSIFASPNHAGLYFVMVYLIVDFRGQKNLAMLFKLYKFLLIVCIMLTLSRTAIGILLLYIIIKIIRSKNAKSVVRFGIISLMVVLIGITLWIAISKYNVYFFSASYIKADNRWIKWQVAIEYIKKYWAIGAPFNIKVQMYAYVNSAITSVEFSDNLFLEIASRFGVPLIACIFIFMIKNLRRAFNEKKITDITKILVFIISSITTGSIHFTIPMILFIVYCDKFD | failed |
| MMQESGTETKSNGSAIQNGSGGSNHLLECGGLREGRSNGETPAVDIGAADLAHAQQQQQQWHLINHQPSRSPSSWLKRLISSPWELEVLQVPLWGAVAETKMSGPVCQPNPSPF | failed |
